Where “and” joins values, the source holds several entries; their conditions need not be identical. Equal entries are not always repeated.
Assays:
[1] = target: Nitrosopumilus maritimus mevalonate kinase (nmr), wild type, SEQ ID NO:9, N-terminal His-tag (Nitrosopumilus maritimus, UniProt A9A427); test: Examination of product inhibition on nmr-derived mevalonate kinase; assay type: biochemical; conditions: 1 mM mevalonate as substrate, 50 mM ATP
[2] = HPLC verification of prepared potassium mevalonate after frozen storage; conditions: HPLC peak area versus lithium mevalonate standard; stored at −20° C.
Description: The mixed solution was then incubated at 37° C. for 2 hours. After incubation, pH of the solution was adjusted to 8.0 by neutralization with hydrochloric acid.
HPLC used for the verification was HITACH High-Performance Liquid Chromatography (L-2000). HPLC was performed by using YMC-Pack ODS-A (150×4.6 mm I.D.: YMC CO., LTD.) as stationary phase and phosphoric acid (pH2.5) as mobile phase. Detection was performed at 210 nm.

[3] = substrate: Nc1ncnc2c1ncn2[C@@H]1O[C@H](COP(=O)(O)OP(=O)(O)OP(=O)(O)O)[C@@H](O)[C@H]1O; test: purified protein, by the assay type; assay type: biochemical, Nitrosopumilus maritimus; conditions: other: nmr, 5 mM potassium mevalonate, pH 7.6, 30° C., Lineweaver-Burk plot
Description: (§1) Each obtained plasmid was used for transformation of E. coli BL21(DE3). […] When OD600 reached approximately 0.5, 0.1 mM IPTG (for cva, mma, nmr, and sce) or 1 mM (for mcl and mpd) of IPTG was added, and then the mixture was kept at 20° C. overnight to induce the target protein. Harvested cells were suspended in buffer solution A (50 mM sodium phosphate, 0.3 M NaCl and 20 mM Imidazol), and then the cells were disrupted with an ultrasonic disruptor (TOMY: UD-201). […] After centrifugation (28,000×g, 30 min), the supernatant was adsorbed onto His-Trap HP (GE Healthcare) to elute the target protein by linear concentration gradient of Imidazol (final concentration 0.5 M). Obtained protein was dialyzed by using an external solution composed of 20 mM Tris-HCl (pH 8.0) containing 1 mM DTT and 50 mM NaCl. Dialyzed protein was designated as purified enzyme. Protein quantity was measured with Bio-RAD protein assay kit and BSA standard condition.
(§2) Decrease in absorbance at 340 nm at 30° C. was measured to determine the enzyme activity. […] Km value was calculated by Lineweaver-Burk plot.
(§3) Measured activity of each enzyme (JABS/min) was presented on Table 9 for the calculation of apparent Km value (Km app.) of each enzyme. Table 10 presents Km app., Vmax, molecular weight of the enzyme protein, protein concentration in the enzyme solution and calculated kcat.

[4] = substrate: Nc1ncnc2c1ncn2[C@@H]1O[C@H](COP(=O)(O)OP(=O)(O)OP(=O)(O)O)[C@@H](O)[C@H]1O; test: purified protein, by the assay type; assay type: biochemical, Methanosarcina mazei; conditions: other: mma, 5 mM potassium mevalonate, pH 7.6, 30° C., Lineweaver-Burk plot
Description: as §1, §2, §3

[5] = substrate: Nc1ncnc2c1ncn2[C@@H]1O[C@H](COP(=O)(O)OP(=O)(O)OP(=O)(O)O)[C@@H](O)[C@H]1O; test: purified protein, by the assay type; assay type: biochemical, Saccharomyces cerevisiae; conditions: other: sce, 5 mM potassium mevalonate, pH 7.6, 30° C., Lineweaver-Burk plot
Description: as §1, §2, §3

mevalonate kinase [6] = test: Measurement of activity and Km value of purified mevalonate kinase (PK/LDH coupled, 340 nm); assay type: biochemical
Description: as §1
(§4) Decrease in absorbance at 340 nm at 30° C. was measured to determine the enzyme activity. JASCO Corporation's spectrophotometer (V-650) was used in this study. Millimolar extinction coefficient of NADH used in this study was 6.22 mM^−1 cm^−1. […] Km value was calculated by Lineweaver-Burk plot.
as §3
Activity was indicated by dABS/min when 10 μl of each enzyme was added to 1 ml of reaction solution.

[7] = tested on: mcl-derived mevalonate kinase; test: Effect of IPP and low-concentration DMAPP on mcl-derived mevalonate kinase activity
mevalonate kinase [8] = test: Expression analysis and activity confirmation of His-tagged mevalonate kinases from pET-21a(+) and pET-28b(+); assay type: biochemical; conditions: His-spinTrap eluate after dialysis, 10 μl enzyme solution
Description: Each obtained plasmid was used for transformation of E. coli BL21(DE3). […] When OD600 reached approximately 0.5, IPTG was added to the solution to final concentration of 1 mM. It was then cultured overnight at 20° C. Harvested cells were suspended in the buffer solution consisting of 50 mM sodium phosphate, 0.3 M NaCl and 20 mM Imidazol. Then the cells were disrupted with an ultrasonic disruptor (TOMY: UD-201, output level=3.5). After centrifugation (20,000×g, 20 min), disrupted cells were adsorbed to His-spinTrap (GE Healthcare). After washing with the same buffer solution, protein was eluted with the buffer solution consisting of 50 mM sodium phosphate, 0.3 M NaCl and 0.5 M imidazole (pH7.5). Eluate was dialyzed overnight at 4° C. with the external solution composed of 20 mM Tris-HCl (pH7.5) and 50 mM NaCl. Then, enzyme activity of each eluate in the internal dialysis solution was measured.
Activity of the internal dialysate (about 0.2 ml each) was measured with the 10 μl of enzyme solution (Table 8). Enzyme expression level was compared on activity basis between pET-21a(+) and pET-28b(+). […] It is inferred that expression level is higher in pET-28b(+). Therefore, purified enzyme expressed in pET-28b(+) was used in the further examinations.
Values were presented by decrease in absorbance per unit time per 10 μl in the enzyme reaction measurement system (dABS/min/10 μl).
as §4

mevalonate kinase [9] = test: Inhibition of each mevalonate kinase by DMAPP, GPP, FPP or DPM; assay type: biochemical
Description: Since GPP and FPP solutions contain methanol, methanol which was needed to keep the same methanol level at the addition to the reaction system was added to the reaction solution, which was designated as control.
Respective effect of the added 5 mM DMAPP, 0.1 mM GPP, and 0.1 mM FPP on the activity of each enzyme was measured. […] Contrarily, mcl-derived enzyme was activated by 5 mM DMAPP and its activity increased by 20% from that of the control.
Activity when 10 μl of each enzyme was added to 1 ml of the reaction system was represented by dABS/min
Effect of 1 mM diphosphomevalonate (DPM) on each enzyme was also studied.

mevalonate kinase [10] = test: Examination of product inhibition on each mevalonate kinase (absorbance at 386 nm, PMK addition); assay type: biochemical; conditions: 1 mM mevalonate as substrate; in words
Description: When decrease in absorbance stopped, purified PMK was added to measure further decrease in absorbance at 386 nm.
FIG. 18 presents the SDS-PAGE profile of the purified PMK. […] Then, absorbance decreased further and finally absorbance at 386 nm decreased to 0.3 in all reaction systems. Therefore, it is inferred that mevalonate is converted into diphosphomevalonate via phosphomevalonate by adding PMK to each MVK.

[11] = substrate: Nc1ncnc2c1ncn2[C@@H]1O[C@H](COP(=O)(O)OP(=O)(O)OP(=O)(O)O)[C@@H](O)[C@H]1O; test: purified protein, by the assay type; assay type: biochemical, Corynebacterium variabile; conditions: other: cva, 5 mM potassium mevalonate, pH 7.6, 30° C., Lineweaver-Burk plot
Description: as §1, §2, §3

Molecule: C[C@@](O)(CCOP(=O)(O)O)CC(=O)O [phosphomevalonate, mevalonate-5-phosphate]
- Product inhibition [1]: may cause product inhibition

Molecule: C[C@@](O)(CCO)CC(=O)[O-].[K+] [potassium mevalonate]
- stability after frozen storage [2]: stable

B1: Nitrosopumilus maritimus mevalonate kinase (nmr), wild type, SEQ ID NO:9, N-terminal His-tag (Nitrosopumilus maritimus SCM1) (protein)
chain: MKSKASAPGKVILFGEHFVVYGVKAILCAINKRIAVTAEKIDERKISIKSNIGHLELEPNKPISEINSPLKPFYYLANKIIQDKNFGIKIDVESEIPLGVGLGSSSACCVAGAAAISNLFENNSKEEILKLAIEAEKTIFQNTSGADCTVCTFGGLMEYDKENGFSKIESEPNFHLVIANSNVEHSTESVVAGVRKFKKNNEAEFSKLCKDESHLIENVLELLKENNIRELGERVIKNQEYLERIGISNAKLREMIQTGQNSSFGAKITGAGGGGCIFALTDESNLENTIKEFKEKNHECFSVKIDFKGLDTF
- Km [3]: 1006 ± 20^ μM

B2: Methanosarcina mazei mevalonate kinase (mma), wild type, SEQ ID NO:12, N-terminal His-tag (Methanosarcina mazei Go1) (protein)
chain: MVSCSAPGKIYLFGEHAVVYGETAIACAVELRTRVRAELNDSITIQSQIGRTGLDFEKHPYVSAVIEKMRKSIPINGVFLTVDSDIPVGSGLGSSAAVTIASIGALNELFGFGLSLQEIAKLGHEIEIKVQGAASPTDTYVSTFGGVVTIPERRKLKTPDCGIVIGDTGVFSSTKELVANVRQLRESYPDLIEPLMTSIGKISRIGEQLVLSGDYASIGRLMNVNQGLLDALGVNILELSQLIYSARAAGAFGAKITGAGGGGCMVALTAPEKCNQVAEAVAGAGGKVTITKPTEQGLKVD
- Km [4]: 687 ± 9.3 µM

B3: Saccharomyces cerevisiae mevalonate kinase (sce, ERG12), wild type, NP_013935.1, N-terminal His-tag (Saccharomyces cerevisiae S288C) (protein)
chain: MSLPFLTSAPGKVIIFGEHSAVYNKPAVAASVSALRTYLLISESSAPDTIELDFPDISFNHKWSINDFNAITEDQVNSQKLAKAQQATDGLSQELVSLLDPLLAQLSESFHYHAAFCFLYMFVCLCPHAKNIKFSLKSTLPIGAGLGSSASISVSLALAMAYLGGLIGSNDLEKLSENDKHIVNQWAFIGEKCIHGTPSGIDNAVATYGNALLFEKDSHNGTINTNNFKFLDDFPAIPMILTYTRIPRSTKDLVARVRVLVTEKFPEVMKPILDAMGECALQGLEIMTKLSKCKGTDDEAVETNNELYEQLLELIRINHGLLVSIGVSHPGLELIKNLSDDLRIGSTKLTGAGGGGCSLTLLRRDITQEQIDSFKKKLQDDFSYETFETDLGGTGCCLLSAKNLNKDLKIKSLVFQLFENKTTTKQQIDDLLLPGNTNLPWTS
notes: His-tag (N); made in house; host or cells: E. coli BL21(DE3)
- Km [5]: 464 ± 7.6 µM

B4: mcl: mevalonate kinase derived from Methanosaeta concilii (SEQ ID NO:6), His-tagged purified enzyme (protein, listed as Methanosaeta concilii)
chain: MTMASAPGKIILFGEHAVVSGTAALGGAIDLRARAIVQSLPGRILIETDDLSLRGFSLDLSTGEIRSASAAYATRYVSAVLKELGARDVRVMIESDIPPAAGLGSSASIVVATVAALNGHLGLELSQKEIAALSYRIEKEVQKGRGSPMDTALATYGGYQRIADDNQRLDLPPLEMVVGYTRLPHDTFSLVEKVQLLKERYPDLVGPIFQAIGAISERAAPLIREQRLKDLGELMDINHGLLEALGVGSRELSELVYAARNTGGALGAKLTGAGGGGCMIALPGMAGKDALLVALRQARGMAFAAMMGCEGVRLEVA
modifications: His-tag
- dABS/min at ATP 0.04 mM (mevalonate kinase [6]; ATP 0.04 mM, potassium mevalonate 5 mM, 10 μl enzyme in 1 ml, replicate values): 0.06058 dABS/min and 0.06029 dABS/min and 0.05985 dABS/min
- dABS/min at ATP 0.2 mM (mevalonate kinase [6]; ATP 0.2 mM, potassium mevalonate 5 mM, 10 μl enzyme in 1 ml, replicate values): 0.1223 dABS/min and 0.1222 dABS/min (2×)
- dABS/min at ATP 1 mM (mevalonate kinase [6]; ATP 1 mM, potassium mevalonate 5 mM, 10 μl enzyme in 1 ml, replicate values): 0.1584 dABS/min (2×) and 0.1585 dABS/min
- affinity to mevalonate and ATP compared with the other enzymes (mevalonate kinase [6]; in words): higher affinity to mevalonate and ATP than the other enzymes
- dABS/min at mev 0.002 mM (mevalonate kinase [6]; potassium mevalonate 0.002 mM, ATP 5 mM, 10 μl enzyme in 1 ml, replicate values): 0.02277 dABS/min and 0.02381 dABS/min and 0.02265 dABS/min
- dABS/min at mev 0.01 mM (mevalonate kinase [6]; potassium mevalonate 0.01 mM, ATP 5 mM, 10 μl enzyme in 1 ml, replicate values): 0.08427 dABS/min and 0.0843 dABS/min and 0.08431 dABS/min
- dABS/min at mev 0.04 mM (mevalonate kinase [6]; potassium mevalonate 0.04 mM, ATP 5 mM, 10 μl enzyme in 1 ml, replicate values): 0.1675 dABS/min and 0.1677 dABS/min and 0.1671 dABS/min
- dABS/min at mev 0.2 mM (mevalonate kinase [6]; potassium mevalonate 0.2 mM, ATP 5 mM, 10 μl enzyme in 1 ml, replicate values): 0.2123 dABS/min (2×) and 0.2125 dABS/min
- enzyme activity, Control (MeOH) ([7]; 70% methanol control for IPP): 0.1594 dABS/min
- enzyme activity, Control (H2O) ([7]; control for DMAPP): 0.154 dABS/min
- enzyme activity, pET21 system (C terminal Tag) (mevalonate kinase [8]): 0.003 dABS/min/10 μl
- enzyme activity, pET28 system (N terminal Tag) (mevalonate kinase [8]): 0.023 dABS/min/10 μl
- enzyme activity, Control (mevalonate kinase [9]; Table 11 control without terpenyl diphosphate (methanol added)): 0.1482 dABS/min
- enzyme activity, Control (mevalonate kinase [9]; Table 12 control without DPM): 0.1373 dABS/min
- effect of 5 mM DMAPP on enzyme activity (mevalonate kinase [9]; in words): activated
- course of decrease in absorbance at 386 nm until PMK addition (mevalonate kinase [10]): almost linear decrease in absorbance

B5: Corynebacterium variabile mevalonate kinase (cva), wild type, SEQ ID NO:3, N-terminal His-tag (Corynebacterium variabile) (protein)
chain: MAPHVGHGQTVAKIILFGEHSVVYGHPAIAMPLRTLRMIARVEPTDGPGTLSGLGWTGPITEAPARFSSIVKAAEVASDFAGHPGAGLNISTESEFPPERGLGSSAAAAGAVIRAVLDAFDTPATPRELFDLTQEAETVAHGRPSGLDAVATSAEAPVHFQAGQATDLEFSPDAWIVIADSGVEGSTRETVGHVRGRFEAEPDIITALLNRLGEITDEVVVDLRTGDVQGMGARMTEAHGILGQLGVSNTQLDALVTASLGAGALGAKLTGGGRGGCVIALAATEEDAENVEKALVDAGARGTWVHAPATGQMAGEVMQ
- Km [11]: 1347 ± 29^ μM

— patent US10184137B2, “Method of producing isoprene monomer” (AJINOMOTO CO., INC., priority 2014, dated 2019)
